Patent US20230265404, “ENGINEERED MAD7 DIRECTED ENDONUCLEASE” (BIO-TECHNE CORPORATION, published 2023)

Target: T1, MAD7 E962Q (dead MAD7) (Eubacterium rectale, E962Q)
T1 chain: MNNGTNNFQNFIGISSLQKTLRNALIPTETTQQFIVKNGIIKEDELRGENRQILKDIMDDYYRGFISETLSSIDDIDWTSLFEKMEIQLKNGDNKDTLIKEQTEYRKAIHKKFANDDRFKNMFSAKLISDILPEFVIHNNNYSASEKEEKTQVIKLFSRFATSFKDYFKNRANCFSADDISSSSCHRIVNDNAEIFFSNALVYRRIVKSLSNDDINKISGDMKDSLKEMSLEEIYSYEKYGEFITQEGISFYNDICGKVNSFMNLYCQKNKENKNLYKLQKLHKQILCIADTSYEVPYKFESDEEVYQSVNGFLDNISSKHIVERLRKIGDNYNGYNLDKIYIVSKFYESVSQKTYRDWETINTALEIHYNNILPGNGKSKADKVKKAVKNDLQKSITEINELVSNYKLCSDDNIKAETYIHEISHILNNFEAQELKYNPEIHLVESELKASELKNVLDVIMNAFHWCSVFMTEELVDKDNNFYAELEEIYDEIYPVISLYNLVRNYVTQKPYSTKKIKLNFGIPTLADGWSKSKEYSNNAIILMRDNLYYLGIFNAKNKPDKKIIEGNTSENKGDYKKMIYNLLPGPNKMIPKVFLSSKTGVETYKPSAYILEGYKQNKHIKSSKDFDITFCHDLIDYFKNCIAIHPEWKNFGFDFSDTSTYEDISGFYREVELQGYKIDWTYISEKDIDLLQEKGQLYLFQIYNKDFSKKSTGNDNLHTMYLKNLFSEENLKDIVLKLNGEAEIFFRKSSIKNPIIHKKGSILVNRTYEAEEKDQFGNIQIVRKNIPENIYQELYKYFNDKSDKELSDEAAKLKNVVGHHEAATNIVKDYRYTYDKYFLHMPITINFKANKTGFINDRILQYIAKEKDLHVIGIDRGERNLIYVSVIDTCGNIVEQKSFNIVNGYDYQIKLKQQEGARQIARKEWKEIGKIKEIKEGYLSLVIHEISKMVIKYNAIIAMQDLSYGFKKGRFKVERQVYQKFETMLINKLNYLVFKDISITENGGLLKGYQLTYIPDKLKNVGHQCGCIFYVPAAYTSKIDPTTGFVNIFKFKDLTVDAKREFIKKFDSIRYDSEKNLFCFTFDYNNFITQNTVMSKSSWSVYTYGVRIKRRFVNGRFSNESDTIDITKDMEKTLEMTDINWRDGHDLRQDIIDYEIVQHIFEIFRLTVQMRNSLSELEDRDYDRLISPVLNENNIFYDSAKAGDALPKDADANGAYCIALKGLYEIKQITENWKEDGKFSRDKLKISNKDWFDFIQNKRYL
Experiment: EMSA; bound without cutting; PAM TTTA (5', from target sequence); NEB3.1, salmon sperm DNA competitor, 37 C
Settings: tags: C-terminal 6xHis
Experimental: To evaluate catalytic activity the modified MAD7 enzyme, an electrophoretic mobility shift assay (EMSA) was performed. The following reagents were used: [0142] […] salmon sperm DNA (United States Biological D3950-02 DNA, Salmon [0143] (Deoxyribonucleic acid) CAS: 9007-49-2 [0144] 100 pmol MAD7 variant [0145] 5 pmol double stranded, 6FAM labeled target (created as described above) [0146] 50 pmol MAD7 PPIB gRNA [0147] 2 μL NEB3.1 10X (New England Biolabs) [0148] 20 μL total reaction
The MAD7 variant was incubated with MAD7 PPIB gRNA at 37° C. for 15 minutes. Other reagents were added and incubated 37° for 30 minutes. Reactions were analyzed by gel electrophoresis. Samples were run on a 5% Mini-PROTEAN TBE Mini-Gels (Bio-Rad). Gels were pre-run for 15 minutes at 100V in 0.5X TBE running buffer, samples were loaded and run at 200V for 15 minutes. Gels were imaged with ProteinSimple FluorChem M system using blue excitation and green emission filter to detect 6FAM label. Gel was then stained for 15 minutes in ethidium bromide solution and imaged again using blue excitation and orange emission filter to detect DNA, finally the gel was stained with Coomassie stain and imaged with white light. […]

B1: MAD7 PPIB gRNA ; 6FAM PPIB target duplex (ssRNA ; dsDNA)
RNA: UAAUUUCUACUCUUGUAGAUCCGUCACCAAAAUCAGAUUCA
DNA 1: AGATTCTCATAGGATTTTTACCGTCACCAAAATCAGATTCAGAACCACTTCTCTAAA
DNA 2: TTTAGAGAAGTGGTTCTGAATCTGATTTTGGTGACGGTAAAAATCCTATGAGAATCT
binding result: binds
